Experimental data as given in article PMC4014985 (Scientific Reports, 2014).

Legend:
Test in all cases: ITC
MBP-MCAF1Δ8 = biological target: MBP-MCAF1Δ8
MBP-HDAC3 = MBP-HDAC3 (UniProt O15379 1-428)
[1] = biological target: 3-methyl purine DNA glycosylase (MPG) (UniProt P29372 18-298)
3-methyl purine DNA glycosylase (MPG), sequence (P29372 18-298): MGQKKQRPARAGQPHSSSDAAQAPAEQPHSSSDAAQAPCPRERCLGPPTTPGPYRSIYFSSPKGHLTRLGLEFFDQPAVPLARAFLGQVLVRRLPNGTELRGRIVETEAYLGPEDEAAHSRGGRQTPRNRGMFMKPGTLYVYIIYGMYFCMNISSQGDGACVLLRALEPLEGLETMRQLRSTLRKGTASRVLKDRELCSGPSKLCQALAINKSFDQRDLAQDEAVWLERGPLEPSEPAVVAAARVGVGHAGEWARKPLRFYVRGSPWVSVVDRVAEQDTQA

MBP-HDAC3, sequence (O15379 whole entry): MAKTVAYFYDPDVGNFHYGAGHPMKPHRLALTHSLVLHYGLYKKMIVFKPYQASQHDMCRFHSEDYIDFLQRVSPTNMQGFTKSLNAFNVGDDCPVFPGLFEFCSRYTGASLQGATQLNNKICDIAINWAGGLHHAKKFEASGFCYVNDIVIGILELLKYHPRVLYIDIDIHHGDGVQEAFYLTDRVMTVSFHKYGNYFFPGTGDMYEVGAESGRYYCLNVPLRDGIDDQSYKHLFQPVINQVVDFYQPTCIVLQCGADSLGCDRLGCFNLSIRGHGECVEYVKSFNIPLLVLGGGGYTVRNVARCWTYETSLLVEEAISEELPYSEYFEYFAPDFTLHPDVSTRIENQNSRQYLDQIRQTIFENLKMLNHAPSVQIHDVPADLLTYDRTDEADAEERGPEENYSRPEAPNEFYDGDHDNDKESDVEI

Ka (MBP-MCAF1Δ8): 160000 M⁻¹ | Kd (MBP-MCAF1Δ8): 6400 nM | dH (MBP-MCAF1Δ8): -3.92 kcal/mol | stoichiometry N (MBP-MCAF1Δ8): 1.06 | Ka (MBP-HDAC3): 430000 ± 0.07 M⁻¹ | Kd (MBP-HDAC3): 2350 ± 370 nM | dH (MBP-HDAC3): -1.75 ± 0.78 kcal/mol | stoichiometry N (MBP-HDAC3): 0.98 ± 0.06 | Ka [1]: 450000 ± 0.09 M⁻¹ | Kd [1]: 2290 ± 490 nM | dH [1]: -0.87 ± 0.09 kcal/mol | stoichiometry N [1]: 1.1 ± 0.11
B1: C-terminus of MBD1 (MBD1-c, residues D507-Q605) (domain or fragment, human, UniProt Q9UIS9 507-605, looked up)
chain: DEWTPGTAVLTSPVLVPGCPSKAVDPGLPSVKQEPPDPEEDKEENKDDSASKLAPEEEAGGAGTPVITEIFSLGGTRFRDTAVWLPRSKDLKKPGARKQ
